Assay [1] addresses MBP-KPNA7(E344Q) (human) (UniProt A9QM74).
For assay [2] the target is unchanged. The experiment in a line: pull-down; MBP fusion proteins on amylose resin (1 μg/μl), GST-GFP-NLS constructs in solution (250 nM or indicated concentrations) with Imp-β (250 nM); 2 hrs at 4 °C, 20 mM Tris pH 8, 200 mM NaCl, 1 mM EDTA, 1 mM DTT, 0.05% Triton X-100; western blot. On the technique in general: A western blot detects proteins with antibodies after separation by electrophoresis.

The target is the same in assay [3]. This is another data set of the same source.

Chain of MBP-KPNA7(E344Q) (human) (A9QM74 whole entry E344Q, the tested form may be a part): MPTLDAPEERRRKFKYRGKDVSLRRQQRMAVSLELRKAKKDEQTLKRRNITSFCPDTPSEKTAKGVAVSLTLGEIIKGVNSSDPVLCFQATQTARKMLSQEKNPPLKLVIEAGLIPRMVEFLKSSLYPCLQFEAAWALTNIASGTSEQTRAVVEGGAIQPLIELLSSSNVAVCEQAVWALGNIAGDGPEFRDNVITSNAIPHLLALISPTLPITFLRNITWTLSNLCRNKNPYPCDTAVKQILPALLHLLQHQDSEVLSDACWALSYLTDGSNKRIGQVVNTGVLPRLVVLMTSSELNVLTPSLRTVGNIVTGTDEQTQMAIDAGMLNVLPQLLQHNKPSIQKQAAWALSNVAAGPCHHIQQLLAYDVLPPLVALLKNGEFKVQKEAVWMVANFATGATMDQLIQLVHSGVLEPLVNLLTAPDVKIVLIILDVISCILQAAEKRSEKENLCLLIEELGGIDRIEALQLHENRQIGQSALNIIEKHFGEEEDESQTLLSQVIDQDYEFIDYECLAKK
Chain of GST-GFP-hnRNP U monopartite NLS (domain or fragment) (Q00839 2-825): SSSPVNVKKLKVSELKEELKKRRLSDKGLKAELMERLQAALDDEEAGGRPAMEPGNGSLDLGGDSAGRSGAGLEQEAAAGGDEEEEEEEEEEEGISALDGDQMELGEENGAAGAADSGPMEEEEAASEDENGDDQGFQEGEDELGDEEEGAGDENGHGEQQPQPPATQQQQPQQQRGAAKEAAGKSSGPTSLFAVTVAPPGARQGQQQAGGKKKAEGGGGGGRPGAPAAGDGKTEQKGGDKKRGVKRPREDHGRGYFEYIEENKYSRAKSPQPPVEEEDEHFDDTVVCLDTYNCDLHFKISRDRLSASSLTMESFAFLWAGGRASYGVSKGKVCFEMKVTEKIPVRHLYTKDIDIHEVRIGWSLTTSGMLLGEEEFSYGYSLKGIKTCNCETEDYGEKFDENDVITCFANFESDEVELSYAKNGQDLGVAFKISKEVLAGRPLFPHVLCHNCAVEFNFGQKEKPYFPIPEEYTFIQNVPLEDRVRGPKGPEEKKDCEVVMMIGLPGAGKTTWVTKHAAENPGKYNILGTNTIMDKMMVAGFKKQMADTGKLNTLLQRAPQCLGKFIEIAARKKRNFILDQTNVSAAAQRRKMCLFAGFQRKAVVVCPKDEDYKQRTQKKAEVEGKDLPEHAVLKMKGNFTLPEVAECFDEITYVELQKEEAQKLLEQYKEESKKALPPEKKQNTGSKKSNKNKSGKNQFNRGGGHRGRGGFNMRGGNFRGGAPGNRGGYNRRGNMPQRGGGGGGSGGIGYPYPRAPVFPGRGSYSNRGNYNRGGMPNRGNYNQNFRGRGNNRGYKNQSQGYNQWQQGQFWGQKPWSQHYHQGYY

In the case of “GST-GFP-hnRNP U monopartite NLS (domain or fragment)”, in the assay with MBP-KPNA7(E344Q) (human) [1], the nuclear import of GST-GFP-hnRNP U-mNLS in digitonin-permeabilized HeLa cells, reduction compared to WT KPNA7 worked out at 30%. Also, the fold less binding than WT or P339A KPNA7 with MBP-KPNA7(E344Q) (human) [2] stood at 8 fold.

In the case of GST-GFP-SV40-NLS (domain or fragment), the nuclear import of GST-GFP-NLS in digitonin-permeabilized HeLa cells, reduction compared to wild-type KPNA7 with MBP-KPNA7(E344Q) (human) [3] came out at 20%.
